Source: US20240044881A1

Tests used:
[1] = target: Type III ClyA-CS nanopore (Salmonella typhi) (UniProt Q8Z727); assay: single-channel current recording, planar lipid bilayer, -35 mV
[2] = target: Type II ClyA-CS nanopore (Salmonella typhi) (UniProt Q8Z727); assay: as above
[3] = target: Type I ClyA-CS nanopore (Salmonella typhi) (UniProt Q8Z727); assay: as above
[4] = target: Type II ClyA-CS nanopore (Salmonella typhi) (UniProt Q8Z727)
[5] = target: Type I ClyA-CS nanopore (Salmonella typhi) (UniProt Q8Z727)
[6] = target: Type II ClyA-CS nanopore (Salmonella typhi) (UniProt Q8Z727); assay: single-channel current recording, planar lipid bilayer, -150 mV
[7] = target: Type I ClyA-CS nanopore (Salmonella typhi) (UniProt Q8Z727); assay: as above

human thrombin (from UniProt P00734 328-622) (enzyme)
HT Level 2 at -35 mV, IRES % (residual current) [1]: 32%
HT Occupancy of L2 at -35 mV, % [1]: 100%
duration of HT blockades at -35 mV [1]: 55 ms
HT Level 1 at -35 mV, IRES % (residual current) [2]: 68%
HT Level 2 at -35 mV, IRES % (residual current) [2]: 31%
HT Level 1 at -35 mV, IRES % (residual current) [3]: 56%
HT Level 2 at -35 mV, IRES % (residual current) [3]: 23%
HT Occupancy of L2 at -35 mV, % [3]: 30%
occupancy of the more superficial binding site (level 1) at -35 mV, % [3]: 70%
HT Dwell time at -150 mV [4]: 235 ms
HT Dwell time at -150 mV [5]: 1 ms
HT Level 2 (-150 mV), IRES, % (residual current) [6]: 31%
HT Occupancy of L2 at -150 mV, % [6]: 100%
HT Level 2 (-150 mV), IRES, % (residual current) [7]: 23%
HT Occupancy of L2 at -150 mV, % [7]: 100%
